Where no end group is shown, it is not given here.
Biological target: T1, SARS CoV-2 S1S2 trimer (SARS-CoV-2, UniProt P0DTC2 14-1213)
T1 construct: also called trimeric S1S2; "wt" spike trimer
Experiment: SPR
Details: both partners purified

B1: CVRBDL-3 (peptide)
peptide: HDFWWEYDKKNDTWTRRRR-NH2
notes: also called CVRDBL-3; CVRBD-3; source: synthetic peptide; bought: CASLO
stoichiometry N: 1
